In US20260167721A1 (ABLEXIS, published 2026):
Each block holds one binder with its values, some of them ahead of it.

Key:
recombinant CD3 proteins [1] = biological target: T1, recombinant CD3 proteins (UniProt P07766 23-126); test: Octet BLI, recombinant CD3; Full R^2 0.987
T1 construct: elsewhere it uses human CD3 E/D and E/G heterodimers

recombinant CD3 proteins [2] = biological target: T1, recombinant CD3 proteins; test: Octet BLI, recombinant CD3; Full R^2 0.9778
recombinant CD3 proteins [3] = biological target: T1, recombinant CD3 proteins; test: Octet BLI, recombinant CD3; Full R^2 0.9897

T1 sequence (P07766 23-126): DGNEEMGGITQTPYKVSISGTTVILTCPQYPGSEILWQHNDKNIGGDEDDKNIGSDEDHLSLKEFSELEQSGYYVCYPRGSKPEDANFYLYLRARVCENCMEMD

Kd (recombinant CD3 proteins [1]): 18.7 nM
koff (recombinant CD3 proteins [1]): 0.00536 s⁻¹
kon (recombinant CD3 proteins [1]): 287000 M⁻¹ s⁻¹
B1: CD3 × CD33-BspAb82 (bispecific antibody)
chain 1: EVQLVESGGGLVKPGGSLRLSCAASGLTFSTYSMNWVRQAPGKCLEWVSSISSSGSYVYYADSVKGRFTMSRDNAKNSLYLQMNSLRAEDTAVYYCARERRELLFDYWGQGTLVTVSSGGGGSGGGGSGGGGSGGGGSNFMLTQPHSVSESPGKTVTISCTRSSGSIASNYVQWYQQRPGSSPTSVIYEDNQRPSGVPDRFSGSIDSSSNSASLTISGLKTEDEADYYCQSYDRSNRVFGCGTKLTVLDKTHTCPPCPAPEFEGGPSVFLFPPKPKDTLMISRTPEVTCVVVDVSHEDPEVKFNWYVDGVEVHNAKTKPREEQYNSTYRVVSVLTVLHQDWLNGKEYKCKVSNKALPASIEKTISKAKGQPREPQVYTLPPCREEMTKNQVSLWCLVKGFYPSDIAVEWESNGQPENNYKTTPPVLDSDGSFFLYSKLTVDKSRWQQGNVFSCSVMHEALHNHYTQKSLSLSPGK
chain 2: EVQLVQSGAEVKKPGSSVKVSCKASGYTITDSNIHWVRQAPGQSLEWIGYIYPYNGGTDYNQKFKNRATLTVDNPTNTAYMELSSLRSEDTAFYYCVNGNPWLAYWGQGTLVTVSSASTKGPSVFPLAPSSKSTSGGTAALGCLVKDYFPEPVTVSWNSGALTSGVHTFPAVLQSSGLYSLSSVVTVPSSSLGTQTYICNVNHKPSNTKVDKRVEPKSCDKTHTCPPCPAPEFEGGPSVFLFPPKPKDTLMISRTPEVTCVVVDVSHEDPEVKFNWYVDGVEVHNAKTKPREEQYNSTYRVVSVLTVLHQDWLNGKEYKCKVSNKALPASIEKTISKAKGQPREPQVCTLPPSREEMTKNQVSLSCAVKGFYPSDIAVEWESNGQPENNYKTTPPVLDSDGSFFLVSKLTVDKSRWQQGNVFSCSVMHEALHNRFTQKSLSLSPGK
chain 3: DIQLTQSPSTLSASVGDRVTITCRASESLDNYGIRFLTWFQQKPGKAPKLLMYAASNQGSGVPSRFSGSGSGTEFTLTISSLQPDDFATYYCQQTKEVPWSFGQGTKVEVKRTVAAPSVFIFPPSDEQLKSGTASVVCLLNNFYPREAKVQWKVDNALQSGNSQESVTEQDSKDSTYSLSSTLTLSKADYEKHKVYACEVTHQGLSSPVTKSFNRGEC

Kd (recombinant CD3 proteins [2]): 3.28 nM
koff (recombinant CD3 proteins [2]): 0.00134 s⁻¹
kon (recombinant CD3 proteins [2]): 408000 M⁻¹ s⁻¹
B2: CD3 × CD33-BspAb83 (bispecific antibody)
chain 1: EVQLVESGGGLVKPGGSLRLSCVASGFTFSRYSMNWVRQAPGKCLEWVSSISSSSRYTYYADSLKGRFIMSRDNAKNSLFLQMNSLRAEDTAVYYCARNLYNALDYWGQGTLVTVSSGGGGSGGGGSGGGGSGGGGSFMLTQPHSVSESPGKTVTISCTRSSGSIASNYVQWYQQRPGSSPTTVIYEDNQRPSGVPDRFSGSIDSSSNSASLTISGLQTEDEADYYCQSYDSSNRVFGCGTKLTVLDKTHTCPPCPAPEFEGGPSVFLFPPKPKDTLMISRTPEVTCVVVDVSHEDPEVKFNWYVDGVEVHNAKTKPREEQYNSTYRVVSVLTVLHQDWLNGKEYKCKVSNKALPASIEKTISKAKGQPREPQVYTLPPCREEMTKNQVSLWCLVKGFYPSDIAVEWESNGQPENNYKTTPPVLDSDGSFFLYSKLTVDKSRWQQGNVFSCSVMHEALHNHYTQKSLSLSPGK
chain 2: EVQLVQSGAEVKKPGSSVKVSCKASGYTITDSNIHWVRQAPGQSLEWIGYIYPYNGGTDYNQKFKNRATLTVDNPTNTAYMELSSLRSEDTAFYYCVNGNPWLAYWGQGTLVTVSSASTKGPSVFPLAPSSKSTSGGTAALGCLVKDYFPEPVTVSWNSGALTSGVHTFPAVLQSSGLYSLSSVVTVPSSSLGTQTYICNVNHKPSNTKVDKRVEPKSCDKTHTCPPCPAPEFEGGPSVFLFPPKPKDTLMISRTPEVTCVVVDVSHEDPEVKFNWYVDGVEVHNAKTKPREEQYNSTYRVVSVLTVLHQDWLNGKEYKCKVSNKALPASIEKTISKAKGQPREPQVCTLPPSREEMTKNQVSLSCAVKGFYPSDIAVEWESNGQPENNYKTTPPVLDSDGSFFLVSKLTVDKSRWQQGNVFSCSVMHEALHNRFTQKSLSLSPGK
chain 3: DIQLTQSPSTLSASVGDRVTITCRASESLDNYGIRFLTWFQQKPGKAPKLLMYAASNQGSGVPSRFSGSGSGTEFTLTISSLQPDDFATYYCQQTKEVPWSFGQGTKVEVKRTVAAPSVFIFPPSDEQLKSGTASVVCLLNNFYPREAKVQWKVDNALQSGNSQESVTEQDSKDSTYSLSSTLTLSKADYEKHKVYACEVTHQGLSSPVTKSFNRGEC

Kd (recombinant CD3 proteins [3]): 24.6 nM
koff (recombinant CD3 proteins [3]): 0.00671 s⁻¹
kon (recombinant CD3 proteins [3]): 273000 M⁻¹ s⁻¹
B3: CD3 × CD33-BspAb84 (bispecific antibody)
chain 1: EVQVAESGGGLVKPGGSLRLSCAASGFTFSRYSMNWVRQAPGKCLEWVSSISSSGSYTYYADSVKGRFTISRDNAKNSLYLQMNSLRAEDTAVYYCVRERGKGAGMDVWGQGTTVTVSSGGGGSGGGGSGGGGSGGGGSNFMLTQPHSVSESPGKTVTISCTRSSGSIASNYVQWYQQRPGSSPTTVIYEDNQRPSGVPDRFSGSIDSSSNSASLTISGLKTEDEADYYCQSYDSSNRVFGCGTKLTVLDKTHTCPPCPAPEFEGGPSVFLFPPKPKDTLMISRTPEVTCVVVDVSHEDPEVKFNWYVDGVEVHNAKTKPREEQYNSTYRVVSVLTVLHQDWLNGKEYKCKVSNKALPASIEKTISKAKGQPREPQVYTLPPCREEMTKNQVSLWCLVKGFYPSDIAVEWESNGQPENNYKTTPPVLDSDGSFFLYSKLTVDKSRWQQGNVFSCSVMHEALHNHYTQKSLSLSPGK
chain 2: EVQLVQSGAEVKKPGSSVKVSCKASGYTITDSNIHWVRQAPGQSLEWIGYIYPYNGGTDYNQKFKNRATLTVDNPTNTAYMELSSLRSEDTAFYYCVNGNPWLAYWGQGTLVTVSSASTKGPSVFPLAPSSKSTSGGTAALGCLVKDYFPEPVTVSWNSGALTSGVHTFPAVLQSSGLYSLSSVVTVPSSSLGTQTYICNVNHKPSNTKVDKRVEPKSCDKTHTCPPCPAPEFEGGPSVFLFPPKPKDTLMISRTPEVTCVVVDVSHEDPEVKFNWYVDGVEVHNAKTKPREEQYNSTYRVVSVLTVLHQDWLNGKEYKCKVSNKALPASIEKTISKAKGQPREPQVCTLPPSREEMTKNQVSLSCAVKGFYPSDIAVEWESNGQPENNYKTTPPVLDSDGSFFLVSKLTVDKSRWQQGNVFSCSVMHEALHNRFTQKSLSLSPGK
chain 3: DIQLTQSPSTLSASVGDRVTITCRASESLDNYGIRFLTWFQQKPGKAPKLLMYAASNQGSGVPSRFSGSGSGTEFTLTISSLQPDDFATYYCQQTKEVPWSFGQGTKVEVKRTVAAPSVFIFPPSDEQLKSGTASVVCLLNNFYPREAKVQWKVDNALQSGNSQESVTEQDSKDSTYSLSSTLTLSKADYEKHKVYACEVTHQGLSSPVTKSFNRGEC
